Measurements as given in the supplement of paper PMC12855868.

B1: library; numbered along this chain (parent)
chain: MAAAGGARLLRAASAVLGGPAGRWLHHAGSRAGSSGLLRNRGPGGSAEASRSLSVSARARSSSEDKITVHFINRDGETLTTKGKVGDSLLDVVVENNLDIDGFGACEGTLACSTCHLIFEDHIYEKLDAITDEENDMLDLAYGLTDRSRLGCQICLTKSMDNMTVRVPETVADARQSIDVGKTS

Variants of: B1
Assay: scaled log2 fold change in cell abundance, elesclomol vs control (0 = silent mean, 1 = nonsense mean) (scaled log2 ratio); higher = higher viability under elesclomol (loss of FDX1 cuproptosis function)
Details: glucose 10 mM
[1] = with ABC1 FDX1 KO, elesclomol 5 nM, 14 days
[2] = with HEK293T FDX1 KO, elesclomol 40 nM, 11 days
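Note: variant abundance is its share of total variant reads in each endpoint sample, from next-generation sequencing of the integrated ORF PCR-amplified out of genomic DNA.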

Variant | scaled log2 fold change [1] | scaled log2 fold change [2]
MAAAGGARLLRAASAVLGGPAGRWLHHAGSRAGSSGLLRNRGPGGSAEASRSLSVSARARSSSEDKITVHFINRDGETLTTKGKVGDSLLDVVVENNLDIDGFGACEGTLACSTCHLIFEDHIDEKLDAITDEENDMLDLAYGLTDRSRLGCQICLTKSMDNMTVRVPETVADARQSIDVGKTS | 0.088 | 0.872
MAAAGGARLLRAASAVLGGPAGRWLHHAGSRAGSSGLLRNRGPGGSAEASRSLSVSARARSSSEDKITVHFINRDGETLTTKGKVGDSLLDVVVENNLDIDGFGACEGTLACSTCHLIFEDHIEEKLDAITDEENDMLDLAYGLTDRSRLGCQICLTKSMDNMTVRVPETVADARQSIDVGKTS | 0.16 | 0.747
MAAAGGARLLRAASAVLGGPAGRWLHHAGSRAGSSGLLRNRGPGGSAEASRSLSVSARARSSSEDKITVHFINRDGETLTTKGKVGDSLLDVVVENNLDIDGFGACEGTLACSTCHLIFEDHIFEKLDAITDEENDMLDLAYGLTDRSRLGCQICLTKSMDNMTVRVPETVADARQSIDVGKTS | -0.497 | -0.225
MAAAGGARLLRAASAVLGGPAGRWLHHAGSRAGSSGLLRNRGPGGSAEASRSLSVSARARSSSEDKITVHFINRDGETLTTKGKVGDSLLDVVVENNLDIDGFGACEGTLACSTCHLIFEDHIGEKLDAITDEENDMLDLAYGLTDRSRLGCQICLTKSMDNMTVRVPETVADARQSIDVGKTS | -0.0904 | 0.69
MAAAGGARLLRAASAVLGGPAGRWLHHAGSRAGSSGLLRNRGPGGSAEASRSLSVSARARSSSEDKITVHFINRDGETLTTKGKVGDSLLDVVVENNLDIDGFGACEGTLACSTCHLIFEDHIHEKLDAITDEENDMLDLAYGLTDRSRLGCQICLTKSMDNMTVRVPETVADARQSIDVGKTS | 0.148 | 1.04
MAAAGGARLLRAASAVLGGPAGRWLHHAGSRAGSSGLLRNRGPGGSAEASRSLSVSARARSSSEDKITVHFINRDGETLTTKGKVGDSLLDVVVENNLDIDGFGACEGTLACSTCHLIFEDHIIEKLDAITDEENDMLDLAYGLTDRSRLGCQICLTKSMDNMTVRVPETVADARQSIDVGKTS | 0.367 | 0.0274
MAAAGGARLLRAASAVLGGPAGRWLHHAGSRAGSSGLLRNRGPGGSAEASRSLSVSARARSSSEDKITVHFINRDGETLTTKGKVGDSLLDVVVENNLDIDGFGACEGTLACSTCHLIFEDHIKEKLDAITDEENDMLDLAYGLTDRSRLGCQICLTKSMDNMTVRVPETVADARQSIDVGKTS | 0.0432 | -0.66
MAAAGGARLLRAASAVLGGPAGRWLHHAGSRAGSSGLLRNRGPGGSAEASRSLSVSARARSSSEDKITVHFINRDGETLTTKGKVGDSLLDVVVENNLDIDGFGACEGTLACSTCHLIFEDHILEKLDAITDEENDMLDLAYGLTDRSRLGCQICLTKSMDNMTVRVPETVADARQSIDVGKTS | 0.252 | 0.75
MAAAGGARLLRAASAVLGGPAGRWLHHAGSRAGSSGLLRNRGPGGSAEASRSLSVSARARSSSEDKITVHFINRDGETLTTKGKVGDSLLDVVVENNLDIDGFGACEGTLACSTCHLIFEDHIMEKLDAITDEENDMLDLAYGLTDRSRLGCQICLTKSMDNMTVRVPETVADARQSIDVGKTS | -0.133 | -0.153
MAAAGGARLLRAASAVLGGPAGRWLHHAGSRAGSSGLLRNRGPGGSAEASRSLSVSARARSSSEDKITVHFINRDGETLTTKGKVGDSLLDVVVENNLDIDGFGACEGTLACSTCHLIFEDHINEKLDAITDEENDMLDLAYGLTDRSRLGCQICLTKSMDNMTVRVPETVADARQSIDVGKTS | 0.36 | 1.01
MAAAGGARLLRAASAVLGGPAGRWLHHAGSRAGSSGLLRNRGPGGSAEASRSLSVSARARSSSEDKITVHFINRDGETLTTKGKVGDSLLDVVVENNLDIDGFGACEGTLACSTCHLIFEDHIPEKLDAITDEENDMLDLAYGLTDRSRLGCQICLTKSMDNMTVRVPETVADARQSIDVGKTS | 0.511 | 0.253
MAAAGGARLLRAASAVLGGPAGRWLHHAGSRAGSSGLLRNRGPGGSAEASRSLSVSARARSSSEDKITVHFINRDGETLTTKGKVGDSLLDVVVENNLDIDGFGACEGTLACSTCHLIFEDHIQEKLDAITDEENDMLDLAYGLTDRSRLGCQICLTKSMDNMTVRVPETVADARQSIDVGKTS | 0.286 | -0.703
MAAAGGARLLRAASAVLGGPAGRWLHHAGSRAGSSGLLRNRGPGGSAEASRSLSVSARARSSSEDKITVHFINRDGETLTTKGKVGDSLLDVVVENNLDIDGFGACEGTLACSTCHLIFEDHIREKLDAITDEENDMLDLAYGLTDRSRLGCQICLTKSMDNMTVRVPETVADARQSIDVGKTS | 0.234 | -0.258
MAAAGGARLLRAASAVLGGPAGRWLHHAGSRAGSSGLLRNRGPGGSAEASRSLSVSARARSSSEDKITVHFINRDGETLTTKGKVGDSLLDVVVENNLDIDGFGACEGTLACSTCHLIFEDHISEKLDAITDEENDMLDLAYGLTDRSRLGCQICLTKSMDNMTVRVPETVADARQSIDVGKTS | 0.413 | 0.62
MAAAGGARLLRAASAVLGGPAGRWLHHAGSRAGSSGLLRNRGPGGSAEASRSLSVSARARSSSEDKITVHFINRDGETLTTKGKVGDSLLDVVVENNLDIDGFGACEGTLACSTCHLIFEDHITEKLDAITDEENDMLDLAYGLTDRSRLGCQICLTKSMDNMTVRVPETVADARQSIDVGKTS | 0.399 | -0.214
MAAAGGARLLRAASAVLGGPAGRWLHHAGSRAGSSGLLRNRGPGGSAEASRSLSVSARARSSSEDKITVHFINRDGETLTTKGKVGDSLLDVVVENNLDIDGFGACEGTLACSTCHLIFEDHIVEKLDAITDEENDMLDLAYGLTDRSRLGCQICLTKSMDNMTVRVPETVADARQSIDVGKTS | -0.329 | -0.724
